Amyloid nucleation score data for 140 substances are collected here from the supplement of paper PMC12042874.

± gives the uncertainty stated by the source.

This series in a line: amyloid nucleation score (Sup35N fusion, yeast selection) (log enrichment); library NNK2; higher = more nucleation; inactive = no reads after selection. The method in brief: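 Nucleation score is defined as the DiMSum log enrichment of output over input reads, with centring on the mode score of non-aggregating sequences. A minimum of 100 input reads was required for each sequence. Reads came from Illumina sequencing of plasmid inserts from psi-negative yeast expressing Sup35N fused to peptides of 20 random codons, induced with 100 μM copper sulfate for 24 hours and grown 7 days at 30°C on medium lacking adenine and uracil.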
On to VRIIETGRC, for which the amyloid nucleation score was determined as 0.136 ± 0.39.

With VRLFLPHIYKMSLRDGGFEP, the amyloid nucleation score was -0.349 ± 0.63.

For the substance VRLGRWLFTFSANTDTLANM, the amyloid nucleation score is -0.729 ± 1.1.

VRLHGLLHANMGKTFMLLLS: the amyloid nucleation score is -0.486 ± 0.56.

With VRMEVIFYC, the amyloid nucleation score stood at 2.54 ± 0.2.

Take VRMNPITAGLCVQCLHTQRF: the amyloid nucleation score was -0.654 ± 1.

For the substance VRNKMSGPLMFIIGLDLSCN, the amyloid nucleation score entry was “inactive”.

The substance VRPRAPSSADNPLQ returned an amyloid nucleation score of 0.121 ± 0.49.

As for VRRLLEAFWARKFFLVAITQ, the amyloid nucleation score is -0.237 ± 0.79.

As for VRVGVWSMTFG, the amyloid nucleation score was -0.52 ± 0.78.

VRWTRILVLIMFYAMSSTGT had an amyloid nucleation score of 2.65 ± 0.073.

On to VRYDCYMPDMCFSRDHCWFE, for which the amyloid nucleation score worked out at 0.079 ± 0.55.

Regarding VRYTVTRTRGRYMVKCCENV, the amyloid nucleation score is 0.108 ± 0.2.

Take VSAEWLYTGVWPMRLRSSGV: the amyloid nucleation score came out at 3.95 ± 0.055.

With VSDNGFFNRYNMTNCRIHGV, the amyloid nucleation score is 0.449 ± 0.57.

The substance VSEIRDFCVVIGF came in with an amyloid nucleation score of 0.573 ± 0.36.

Take VSIPLIISTCASLSVCSMTW: the amyloid nucleation score is 8.067 ± 0.034.

The substance VSKSFFIVIV showed an amyloid nucleation score of 5.702 ± 0.047.

In turn, VSLRSDSGLGITVLMPPSRS yielded an amyloid nucleation score of 1.6 ± 0.44.

As to VSLWVIKASRVNPFYSPGGK, the amyloid nucleation score was 0.301 ± 0.64.

With VSLYRKGSASKEGGLERATD, the amyloid nucleation score was determined as 0.55 ± 0.3.

As to VSMNDVLYLMCS, the amyloid nucleation score was -0.556 ± 0.25.

VSNRVLEMVSKEVASAKNQL had an amyloid nucleation score of 0.288 ± 0.34.

For the substance VSPAHPNYFPISP, the amyloid nucleation score is -0.889 ± 1.1.

The substance VSQVMLSK showed an amyloid nucleation score of 0.626 ± 0.24.

In turn, VSRFDA had an amyloid nucleation score of 0.306 ± 0.31.

VSSRYCTCRLCHPWYSFWFS: the amyloid nucleation score was -0.625 ± 0.54.

Turning to VSSVVLCIIIRDGSMMFYYK, the amyloid nucleation score entry is “inactive”.

With VSSYCIRML, the amyloid nucleation score stood at 0.11 ± 0.76.

For VSVNSGSVKLFVIPACCSYD, the amyloid nucleation score was 6.099 ± 0.055.

Turning to VSWCFFDHYHSTILKHGTVS, the amyloid nucleation score result was “inactive”.

As for VSYKWNGEWVRAPFDLQGCI, the amyloid nucleation score was -0.464 ± 1.1.

VTFLGDIRYFRCWCL yielded an amyloid nucleation score of 9.561 ± 0.077.

Take VTIFILFSLNSGGHGSDRVW: the amyloid nucleation score is 4.849 ± 0.031.

For the substance VTKVCGYLEFSMQVYRCVFH, the amyloid nucleation score entry was “inactive”.

As for VTLMSV, the amyloid nucleation score was determined as 0.504 ± 0.74.

Substance VTLQPFCSARSWLEMNVKFF gave an amyloid nucleation score of 4.44 ± 0.066.

VTLRTANGDKWKTPASNI: the amyloid nucleation score result was “inactive”.

As to VTRLFGIREFRG, the amyloid nucleation score amounted to 3.65 ± 0.053.

Consider VTRTDVKPKVVGRRRARLCL, for which the amyloid nucleation score stood at 0.705 ± 0.44.

As for VTRVWYRTSDCDAYSHGNFL, the amyloid nucleation score was 0.991 ± 0.27.

In turn, VTTKKHPIYTVTRRDRKPGD yielded an amyloid nucleation score of 0.524 ± 0.32.

Turning to VTVKYRVVTDVLRTMRNDSV, the amyloid nucleation score came to 0.297 ± 0.34.

Turning to VTVRRCSFFQVY, the amyloid nucleation score is -0.196 ± 0.41.

The substance VTVRSFTNIRSTFKLDSPLL showed an amyloid nucleation score of 0.122 ± 0.29.

Consider VVCFMPSFYAGPKI, for which the amyloid nucleation score was 5.281 ± 0.041.

For the substance VVEGGRFLVDSRWKVVSRGC, the amyloid nucleation score is -0.719 ± 0.38.

On to VVHSFEWNLRRLSTWWRWGF, for which the amyloid nucleation score amounted to 0.217 ± 0.31.

With VVIRCFYGTERNASWLLVCL, the amyloid nucleation score was -0.059 ± 0.24.

On to VVKFYWCIVQCCTWNGMKSH, for which the amyloid nucleation score stood at 8.363 ± 0.067.

VVLRHHLFSSALYICMRGIQ: the amyloid nucleation score entry was “inactive”.

Take VVLRVLISFSHSTIRLEGLV: the amyloid nucleation score amounted to 2.84 ± 0.093.

As for VVMNLMEFMVRVSVLDNAEG, the amyloid nucleation score was found to be 4.47 ± 0.075.

Turning to VVQQLIRKITVFSLRLVLNK, the amyloid nucleation score is 4.16 ± 0.073.

Take VVRGIRVTR: the amyloid nucleation score is 0.116 ± 0.28.

With VVRKGCL, the amyloid nucleation score is -0.86 ± 1.1.

VVRMVHLSADFQGK showed an amyloid nucleation score of 5.26 ± 0.095.

The substance VVRSRW returned an amyloid nucleation score of 0.372 ± 0.42.

Take VVRYLPCRRLPVWWVVCYEI: the amyloid nucleation score was determined as 0.488 ± 0.29.

VVSGTLKKMGVFGTSAIISE displayed an amyloid nucleation score of 0.494 ± 0.8.

On to VWELDRVVR, for which the amyloid nucleation score was 0.783 ± 0.53.

For the substance VWFFGSYHVCWDCTF, the amyloid nucleation score was 0.378 ± 0.74.

For VWKNPYIGVHLLHDLKS, the amyloid nucleation score was -0.391 ± 0.21.

The substance VWLDIYSQLEDENVYSSYLD showed an amyloid nucleation score of 2.44 ± 0.086.

With VWLGVTSSPIIMSKNMSNVV, the amyloid nucleation score is 0.404 ± 0.36.

The substance VWLSFRVYLVMTSVLVILNC gave an amyloid nucleation score of 1.13 ± 0.11.

In turn, VWLTMKVAILPCSQRIEKMV showed an amyloid nucleation score of 1.47 ± 0.38.

As to VWLYKSLIINFDSKWRLS, the amyloid nucleation score came to 6.268 ± 0.034.

As to VWPQCYLSLVF, the amyloid nucleation score is -0.082 ± 0.49.

The substance VWTLYYHHIGSAFSTCNRLF yielded an amyloid nucleation score of 4.5 ± 0.062.

In the case of VWTSIYDFSLWADYGQK, the amyloid nucleation score is -1.58 ± 1.1.

VWVRIQMWYDIMSSASQLYR displayed an amyloid nucleation score of 0.446 ± 0.33.

VWVRMRKAVGAVHYRDLRSS gave an amyloid nucleation score of 8.893 ± 0.075.

VWVWCFR showed an amyloid nucleation score of 8.331 ± 0.042.

For the substance VWWFPRLPIPKESVIINGLS, the amyloid nucleation score entry was “inactive”.

VWYSDDWSWWGARRLCKNRR had an amyloid nucleation score of 0.236 ± 1.1.

In the case of VYDQIYGRLANRLVHNKWRR, the amyloid nucleation score is -0.341 ± 0.55.

On to VYGLVL, for which the amyloid nucleation score amounted to 0.011 ± 0.45.

As to VYKFEKESLLTLSHIHKVAS, the amyloid nucleation score was -0.012 ± 1.1.

For VYLRMSFYYGKRP, the amyloid nucleation score is 4.12 ± 0.044.

As to VYLSSLDSRMRLSTCFRE, the amyloid nucleation score is -0.19 ± 0.35.

In the case of VYNTFLREFHS, the amyloid nucleation score amounted to 1.99 ± 0.13.

VYPFSLSVAYVNRLLYYTVQ registered an amyloid nucleation score of 2.14 ± 0.094.

VYQYWYIAISLRGRPGQCRL yielded an amyloid nucleation score of 4.06 ± 0.05.

Consider VYRSRAVHATSLGSERFNTD, for which the amyloid nucleation score was determined as 5.17 ± 0.1.

On to VYSLYNDRYYC, for which the amyloid nucleation score was -0.406 ± 0.31.

VYVFYVSIKVAVFTLTM yielded an amyloid nucleation score of 3.92 ± 0.041.

For the substance VYYASDNWYLAYRWEGRRFN, the amyloid nucleation score turned out to be 0.821 ± 0.27.

Take VYYTVVCGDDRRCIKMCKFC: the amyloid nucleation score came to 5.327 ± 0.032.

On to VYYVWRNCLSDCLYYILTYF, for which the amyloid nucleation score is -2.05 ± 0.78.

Regarding WAGRCDHK, the amyloid nucleation score was 0.227 ± 0.25.

Substance WAKCRLTIMTKWSLLCGGLG had an amyloid nucleation score of 1.43 ± 0.34.

Turning to WAPFMGVSKSTQTARTGMVM, the amyloid nucleation score was -0.146 ± 0.61.

As to WARCHVLA, the amyloid nucleation score is -0.292 ± 0.55.

As to WASFTSACRRLLSPCTPRSG, the amyloid nucleation score stood at 5.22 ± 0.1.

In the case of WASIQVDRSLGCNIFWLLQ, the amyloid nucleation score was 3.73 ± 0.11.

WCGYMNSSIKSRYSTYTFRS: the amyloid nucleation score came to 2.13 ± 0.088.

As for WCIFL, the amyloid nucleation score came to 4.87 ± 0.087.

WCLMQSFDGLSDME registered an amyloid nucleation score of 0.561 ± 0.62.

Consider WCRAWGDFIMVKSLGLKCIA, for which the amyloid nucleation score is -0.1 ± 0.49.

The substance WCTIHYDLMLVVRTNSSRSI gave an amyloid nucleation score of 1.08 ± 0.18.

The substance WDCAWVLGLVAEGRLT showed an amyloid nucleation score of 6.09 ± 0.039.

With WDNHYRIKYCG, the amyloid nucleation score result is “inactive”.

As for WDPQCGSLPFFLLNAEAFET, the amyloid nucleation score entry is “inactive”.

Take WDQCLMLMCPNE: the amyloid nucleation score is -0.291 ± 0.64.

As for WDSRDLMC, the amyloid nucleation score turned out to be 0.344 ± 0.39.

Take WDTLARYSGIQLVFE: the amyloid nucleation score was -0.974 ± 0.55.

Turning to WDVIELF, the amyloid nucleation score was -1.4 ± 1.1.

As to WEASCVNPH, the amyloid nucleation score is -0.191 ± 0.65.

In the case of WECYLFFCDIVGVGVHWRSS, the amyloid nucleation score is -0.824 ± 0.42.

With WFCVVVMFGRRVDNLDKLVF, the amyloid nucleation score was -1.33 ± 0.54.

In the case of WFIGS, the amyloid nucleation score entry is “inactive”.

For the substance WFIRIAIMARSFCIIALVPR, the amyloid nucleation score is -1.22 ± 0.47.

WFIWNVENR displayed an amyloid nucleation score of 7.15 ± 0.08.

As for WFMRDMEYFPDGLGDYG, the amyloid nucleation score result was “inactive”.

WFMSIMSKYCRVSF: the amyloid nucleation score is -0.149 ± 0.79.

As to WFMSKAYVTSCALFSRVIHT, the amyloid nucleation score was 0.914 ± 0.43.

With WFSDIKSPASLLVSVVVVM, the amyloid nucleation score came out at 0.272 ± 0.57.

As for WFSRFSFCRKHYLTVNNWGL, the amyloid nucleation score was -0.566 ± 0.49.

WGCNSNELSCRLYVVNYSGW: the amyloid nucleation score was -0.251 ± 0.56.

In turn, WGCWTVRSTT came in with an amyloid nucleation score of 0.92 ± 0.46.

WGDIDF: the amyloid nucleation score was -0.385 ± 0.64.

As to WGDRLSVKFMCVDALGRVNL, the amyloid nucleation score is 0.019 ± 0.56.

Substance WGFIAVDGRPIVASLRYSMR returned an amyloid nucleation score of 3.51 ± 0.084.

Take WGHLVWGNTRCLGG: the amyloid nucleation score stood at 0.016 ± 1.1.

In the case of WGNGLSFTAACLLVLLKRNS, the amyloid nucleation score was found to be 2.2 ± 0.16.

For the substance WHCLLGLNYLFGYVSYSTSW, the amyloid nucleation score is 4.99 ± 0.098.

As for WHGRCWTSAKLAYRTRKTMC, the amyloid nucleation score is 1.86 ± 0.17.

WHGVDVIVRLMVAHPLGRTS had an amyloid nucleation score of 4.36 ± 0.11.

Substance WHMLHRVDKAISFSLSCCGR returned an amyloid nucleation score of 7.81 ± 0.084.

WHSTVSLWSHPFPHKATKEP came in with an amyloid nucleation score of 0.256 ± 0.42.

Regarding WHWISAYCTFICRKVLKEMP, the amyloid nucleation score was 0.478 ± 0.4.

Take WIFSPGLMDFVEHDNLEWIA: the amyloid nucleation score is 0.67 ± 0.44.

With WIKLAFDWKQF, the amyloid nucleation score was -1.18 ± 0.55.

Regarding WIWVMWNKLCDSPDVWLANW, the amyloid nucleation score was found to be 0.816 ± 0.51.

Regarding WIYSFTMFATWTNVT, the amyloid nucleation score came out at 0.092 ± 0.79.

As for WKSLGNSAVVIRLAS, the amyloid nucleation score was -0.453 ± 1.1.

Turning to WKTWSPKYWGSFVR, the amyloid nucleation score was -0.283 ± 0.46.

With WKVRISVFMLEAL, the amyloid nucleation score is 2.77 ± 0.075.

Substance WLFSVSISGREDMMWSGLLE displayed an amyloid nucleation score of 0.061 ± 0.4.
